Results reported in article PMC8531446, “Light-triggered and phosphorylation-dependent 14-3-3 association with NON-PHOTOTROPIC HYPOCOTYL 3 is required for hypocotyl phototropism” (Nature Communications, 2021).

Legend:
[1] = biological target: T1, GFP:NPH3 from transgenic Arabidopsis nph3-7 (Arabidopsis thaliana, UniProt Q9FMF5 1-746, phosphoserine at 744 upon blue light irradiation (α-pS744 antibody); dephosphorylated on prolonged irradiation or re-transfer to darkness); test: far-Western, overlay or dot blot; anti-GFP immunoprecipitates from blue-light-treated N. benthamiana leaves (10 μmol m^-2 s^-1, 40 min) or Arabidopsis nph3-7 seedlings (1 μmol m^-2 s^-1) separated by SDS-PAGE, on nitrocellulose; overlaid with RGS(His)6-14-3-3 omega at 20 μg ml^-1 in 50 mM MOPS pH 6.5, 20% glycerol, 5 mM MgCl2, 2 mM DTT, overnight at 4 °C; anti-RGS(His)6 detection; conditions: both partners purified
T1 construct: NPH3, Arabidopsis thaliana; cloned into pH7WGF2; S746 is the last residue; source: Arabidopsis nph3-7 seedlings, stably expressed (35S promoter), anti-GFP immunoprecipitate (GFP-Trap beads); not shown: GFP, N-terminal, kept
T1 sequence (looked up): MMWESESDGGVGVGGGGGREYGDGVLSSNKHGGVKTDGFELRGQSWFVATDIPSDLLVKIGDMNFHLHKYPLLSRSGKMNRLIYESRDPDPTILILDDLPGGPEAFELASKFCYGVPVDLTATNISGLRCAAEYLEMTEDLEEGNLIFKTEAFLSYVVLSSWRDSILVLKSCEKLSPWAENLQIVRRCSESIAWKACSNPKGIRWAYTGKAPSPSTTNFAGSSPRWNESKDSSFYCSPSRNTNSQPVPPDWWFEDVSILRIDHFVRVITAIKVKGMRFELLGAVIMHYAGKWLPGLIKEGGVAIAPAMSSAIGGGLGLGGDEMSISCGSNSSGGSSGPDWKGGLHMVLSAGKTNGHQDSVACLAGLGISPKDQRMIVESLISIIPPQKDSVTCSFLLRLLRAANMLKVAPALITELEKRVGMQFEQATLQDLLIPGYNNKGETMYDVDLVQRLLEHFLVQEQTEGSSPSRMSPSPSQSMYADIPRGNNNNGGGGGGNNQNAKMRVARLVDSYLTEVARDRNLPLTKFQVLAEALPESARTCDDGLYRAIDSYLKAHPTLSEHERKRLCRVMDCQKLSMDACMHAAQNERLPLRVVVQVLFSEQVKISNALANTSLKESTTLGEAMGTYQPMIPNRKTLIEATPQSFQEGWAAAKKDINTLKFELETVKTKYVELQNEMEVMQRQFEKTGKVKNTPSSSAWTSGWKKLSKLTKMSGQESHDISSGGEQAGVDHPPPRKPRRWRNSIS

[2] = biological target: T2, GFP:NPH3 from N. benthamiana (Arabidopsis thaliana, UniProt Q9FMF5 1-746, phosphoserine at 744 upon blue light irradiation only (α-pS744 antibody)); test: as above; conditions: both partners purified
T2 construct: NPH3, Arabidopsis thaliana; cloned into pH7WGF2; S746 is the last residue; source: N. benthamiana leaves, transiently transformed (35S promoter), anti-GFP immunoprecipitate (GFP-Trap beads); not shown: GFP, N-terminal, kept
T2 sequence (looked up): T1 sequence (looked up)

binding result [1]: binds
binding result [2]: binds
B1: RGS(His)6-tagged Arabidopsis 14-3-3 isoform omega (natural protein, UniProt Q01525 1-259, looked up)
chain: MASGREEFVYMAKLAEQAERYEEMVEFMEKVSAAVDGDELTVEERNLLSVAYKNVIGARRASWRIISSIEQKEESRGNDDHVTAIREYRSKIETELSGICDGILKLLDSRLIPAAASGDSKVFYLKMKGDYHRYLAEFKTGQERKDAAEHTLAAYKSAQDIANAELAPTHPIRLGLALNFSVFYYEILNSPDRACNLAKQAFDEAIAELDTLGEESYKDSTLIMQLLRDNLTLWTSDMQDDAADEIKEAAAPKPTEEQQ
notes: 14-3-3 isoform omega, Arabidopsis; cDNA in the expression vector pQE-30; also called purified recombinant 14-3-3 proteins; RGS(His)6-tagged 14-3-3; source: E. coli M15, purified (Ni2+-NTA agarose, native conditions)
